Laboratory results from paper PMC9864776, “Synthesis of Novel Polymer-Assisted Organic-Inorganic Hybrid Nanoflowers and Their Application in Cascade Biocatalysis” (Molecules, 2023).

Substrate: OC[C@H]1OC(O)[C@H](O)[C@@H](O)[C@@H]1O
Experiment: purified protein
Assay type: biochemical, Aspergillus niger
Conditions: apparent Km of the whole cascade with free HRP, glucose 50-175 µM (all below Km), TMB 2 mM, 0.2 M acetate buffer (pH 4 in the standard assay), 20-23 °C, free enzymes

B1: glucose oxidase (GOx), Aspergillus niger type VIII (Aspergillus niger) (protein)
chain: LPHYIRSNGIEASLLTDPKDVSGRTVDYIIAGGGLTGLTTAARLTENPNISVLVIESGSYESDRGPIIEDLNAYGDIFGSSVDHAYETVELATNNQTALIRSGNGLGGSTLVNGGTWTRPHKAQVDSWETVFGNEGWNWDNVAAYSLQAERARAPNAKQIAAGHYFNASCHGVNGTVHAGPRDTGDDYSPIVKALMSAVEDRGVPTKKDFGCGDPHGVSMFPNTLHEDQVRSDAAREWLLPNYQRPNLQVLTGQYVGKVLLSQNGTTPRAVGVEFGTHKGNTHNVYAKHEVLLAAGSAVSPTILEYSGIGMKSILEPLGIDTVVDLPVGLNLQDQTTATVRSRITSAGAGQGQAAWFATFNETFGDYSEKAHELLNTKLEQWAEEAVARGGFHNTTALLIQYENYRDWIVNHNVAYSELFLDTAGVASFDVWDLLPFTRGYVHILDKDPYLHHFAYDPQYFLNELDLLGQAAATQLARNISNSGAMQTYFAGETIPGDNLAYDADLSAWTEYIPYHFRPNYHGVGTCSMMPKEMGGVVDNAARVYGVQGLRVIDGSIPPTQMSSHVMTVFYAMALKISDAILEDYASMQ
notes: commercial native enzyme, Merck/Sigma Aldrich, type VIII; free in solution, together with HRP
In the case of B1, the Km is reported as 1198 µM.
